Test results published in the Human Domainome abundance scans (Beltran et al. 2025).
± gives the uncertainty stated by the source.

B1: E3 ubiquitin-protein ligase TRIM36, residues 208 to 252; numbered along this chain, Q9NQ86 (parent)
chain: KILMCPEHETERINMYCELCRRPVCHLCKLGGNHANHRVTTMSSA

Variants of: B1
Experiment: abundance fitness (aPCA) (normalised: wild type 0, dead -1); higher = more abundant; growth selection in yeast, the domain comes from the species named
Settings: Homo sapiens
H26P showed an abundance fitness of 0.021 ± 0.091. H26K showed an abundance fitness of -0.384 ± 0.077. With H26N the abundance fitness was -0.215 ± 0.078. In the case of H26S, the abundance fitness is reported as 0.004 ± 0.062. For H26V, the abundance fitness was -0.016 ± 0.061. Work on H26Q yielded an abundance fitness of 0.045 ± 0.063. H26C showed an abundance fitness of 0.01 ± 0.065. For H26R, the abundance fitness was -0.05 ± 0.055. For H26D, the abundance fitness was 0.04 ± 0.085. Variant H26E has an abundance fitness of -0.022 ± 0.064. In the case of H26F, the abundance fitness is reported as -0.307 ± 0.24. Work on H26W yielded an abundance fitness of -0.324 ± 0.08. H26G showed an abundance fitness of 0.049 ± 0.058. H26M showed an abundance fitness of -0.237 ± 0.056. Work on H26T yielded an abundance fitness of -0.226 ± 0.068. Variant H26L has an abundance fitness of -0.161 ± 0.055. In the case of H26Y, the abundance fitness is reported as 0.343 ± 0.12. C17H showed an abundance fitness of -0.656 ± 0.47. C17W gave an abundance fitness of -1.16 ± 0.15. C17G gave an abundance fitness of -0.733 ± 0.088. Work on C17L yielded an abundance fitness of -1.04 ± 0.45. For C17Q, the abundance fitness was -0.954 ± 0.43. C17R gave an abundance fitness of -0.909 ± 0.086. With C17A the abundance fitness was -1.01 ± 0.17. For C17E, the abundance fitness was -0.763 ± 0.079. In the case of C17S, the abundance fitness is reported as -0.897 ± 0.19. In the case of C17V, the abundance fitness is reported as -0.813 ± 0.087. C17P gave an abundance fitness of -0.705 ± 0.12. Variant C17T has an abundance fitness of -0.796 ± 0.15. Work on C17Y yielded an abundance fitness of -0.862 ± 0.39. With C17F the abundance fitness was -1.21 ± 0.15. In the case of E9T, the abundance fitness is reported as 0.053 ± 0.053. E9P gave an abundance fitness of 0.075 ± 0.061. Variant E9D has an abundance fitness of 0.008 ± 0.075. E9G gave an abundance fitness of 0.008 ± 0.045. For E9R, the abundance fitness was -0.072 ± 0.044. For E9K, the abundance fitness was 0.079 ± 0.067. E9L showed an abundance fitness of -0.04 ± 0.052. For E9M, the abundance fitness was -0.099 ± 0.065. E9I gave an abundance fitness of -0.042 ± 0.069. With E9C the abundance fitness was -0.074 ± 0.061. Work on E9A yielded an abundance fitness of -0.043 ± 0.053. Variant E9N has an abundance fitness of -0.052 ± 0.088. With E9Q the abundance fitness was -0.062 ± 0.073. For E9Y, the abundance fitness was -0.076 ± 0.12. E9V showed an abundance fitness of -0.051 ± 0.052. Variant E9S has an abundance fitness of 0.07 ± 0.057. Variant E9H has an abundance fitness of -0.069 ± 0.099. Work on E7T yielded an abundance fitness of -0.042 ± 0.062. Variant E7H has an abundance fitness of 0.01 ± 0.13. Variant E7P has an abundance fitness of -0.783 ± 0.086. Variant E7K has an abundance fitness of -0.085 ± 0.06. With E7A the abundance fitness was -0.064 ± 0.056. With E7F the abundance fitness was -0.129 ± 0.071. In the case of E7S, the abundance fitness is reported as -0.103 ± 0.056. E7L showed an abundance fitness of -0.127 ± 0.055. Work on E7C yielded an abundance fitness of -0.209 ± 0.067. Variant E7Q has an abundance fitness of -0.041 ± 0.058. E7N gave an abundance fitness of -0.169 ± 0.099. For E7R, the abundance fitness was -0.104 ± 0.045. E7G gave an abundance fitness of -0.292 ± 0.055. E7V gave an abundance fitness of -0.011 ± 0.064. For E7W, the abundance fitness was -0.315 ± 0.065. Y16G gave an abundance fitness of -0.478 ± 0.11. Y16R showed an abundance fitness of -0.069 ± 0.065. Y16S showed an abundance fitness of -0.135 ± 0.074. Y16W showed an abundance fitness of -0.04 ± 0.1. Y16M showed an abundance fitness of 0.11 ± 0.25. Y16P showed an abundance fitness of -0.111 ± 0.37. In the case of Y16D, the abundance fitness is reported as -0.105 ± 0.11. For Y16H, the abundance fitness was 0.082 ± 0.14. Work on Y16A yielded an abundance fitness of -0.264 ± 0.11. With Y16T the abundance fitness was 0.284 ± 0.15. Work on Y16L yielded an abundance fitness of -0.053 ± 0.076. For Y16Q, the abundance fitness was -0.306 ± 0.29. For Y16K, the abundance fitness was -0.16 ± 0.1. Y16V showed an abundance fitness of -0.437 ± 0.28. In the case of Y16F, the abundance fitness is reported as -0.046 ± 0.084. With P6M the abundance fitness was -0.224 ± 0.066. In the case of P6N, the abundance fitness is reported as -0.139 ± 0.1. In the case of P6A, the abundance fitness is reported as -0.072 ± 0.062. Work on P6Q yielded an abundance fitness of -0.042 ± 0.071. P6D showed an abundance fitness of -0.092 ± 0.071. For P6I, the abundance fitness was -0.219 ± 0.084. Variant P6C has an abundance fitness of -0.235 ± 0.069. In the case of P6G, the abundance fitness is reported as -0.14 ± 0.046. In the case of P6E, the abundance fitness is reported as -0.016 ± 0.052. P6R showed an abundance fitness of -0.145 ± 0.049. Work on P6H yielded an abundance fitness of -0.108 ± 0.095. In the case of P6Y, the abundance fitness is reported as -0.228 ± 0.067. Variant P6V has an abundance fitness of -0.069 ± 0.07. For P6T, the abundance fitness was 0.018 ± 0.076. P6W showed an abundance fitness of -0.378 ± 0.078. For P6F, the abundance fitness was -0.234 ± 0.094. P6K gave an abundance fitness of 0.023 ± 0.078. Variant I13A has an abundance fitness of -0.015 ± 0.078. Work on I13R yielded an abundance fitness of -0.143 ± 0.12. For I13W, the abundance fitness was -0.035 ± 0.15. I13L showed an abundance fitness of 0.032 ± 0.1. With I13M the abundance fitness was 0.049 ± 0.31. With I13P the abundance fitness was 0.166 ± 0.14. I13G showed an abundance fitness of 0.145 ± 0.12. Variant C5Y has an abundance fitness of -1 ± 0.1. C5M showed an abundance fitness of -1.02 ± 0.12. With C5T the abundance fitness was -0.703 ± 0.062. C5V showed an abundance fitness of -0.907 ± 0.077. C5P showed an abundance fitness of -1.06 ± 0.076. C5R gave an abundance fitness of -0.976 ± 0.062. In the case of C5N, the abundance fitness is reported as -0.84 ± 0.088. C5S showed an abundance fitness of -0.765 ± 0.053. Work on C5Q yielded an abundance fitness of -0.996 ± 0.082. For C5W, the abundance fitness was -1.41 ± 0.15. L27E showed an abundance fitness of -0.058 ± 0.05. Variant L27A has an abundance fitness of 0.052 ± 0.05. L27D gave an abundance fitness of -0.202 ± 0.084. Work on L27C yielded an abundance fitness of -0.196 ± 0.064. L27G gave an abundance fitness of -0.141 ± 0.043. With L27I the abundance fitness was -0.041 ± 0.064. For L27M, the abundance fitness was -0.092 ± 0.089. With L27F the abundance fitness was -0.182 ± 0.083. For R22V, the abundance fitness was -0.01 ± 0.055. Variant R22L has an abundance fitness of -0.029 ± 0.075. R22D showed an abundance fitness of -0.197 ± 0.11. Variant R22H has an abundance fitness of 0.013 ± 0.23. R22E showed an abundance fitness of 0.034 ± 0.062. R22G gave an abundance fitness of -0.116 ± 0.058. R22T gave an abundance fitness of -0.09 ± 0.1. Work on R22F yielded an abundance fitness of -0.113 ± 0.069. For R22K, the abundance fitness was 0.068 ± 0.067. R22N showed an abundance fitness of -0.291 ± 0.16. For R22W, the abundance fitness was -0.34 ± 0.079. Work on R22Y yielded an abundance fitness of -0.265 ± 0.1. R22S gave an abundance fitness of 0.047 ± 0.069. R22P gave an abundance fitness of -0.344 ± 0.077. R22C gave an abundance fitness of -0.118 ± 0.062. R22M gave an abundance fitness of -0.163 ± 0.086. Work on R22Q yielded an abundance fitness of 0.036 ± 0.059. R22A gave an abundance fitness of 0.01 ± 0.052. R22I gave an abundance fitness of -0.227 ± 0.11. C25T showed an abundance fitness of -0.612 ± 0.062. In the case of C25M, the abundance fitness is reported as -0.618 ± 0.1. For C25S, the abundance fitness was -0.665 ± 0.054. C25L gave an abundance fitness of -0.81 ± 0.059. Variant C25Q has an abundance fitness of -0.532 ± 0.069. For C25W, the abundance fitness was -1.1 ± 0.091. In the case of C25K, the abundance fitness is reported as -0.572 ± 0.087. Work on C25V yielded an abundance fitness of -0.854 ± 0.059. With C25G the abundance fitness was -0.556 ± 0.053. C25F showed an abundance fitness of -0.752 ± 0.23. C25D gave an abundance fitness of -0.553 ± 0.11. C25R showed an abundance fitness of -0.729 ± 0.054. C25H showed an abundance fitness of -0.603 ± 0.12. For C25A, the abundance fitness was -0.603 ± 0.05. With C25I the abundance fitness was -0.814 ± 0.1. Work on C25P yielded an abundance fitness of -0.723 ± 0.07. C25Y showed an abundance fitness of -0.805 ± 0.075. C25N showed an abundance fitness of -0.5 ± 0.21. C25E gave an abundance fitness of -0.48 ± 0.072. For P23Y, the abundance fitness was -0.069 ± 0.098. P23R showed an abundance fitness of -0.148 ± 0.05. In the case of P23Q, the abundance fitness is reported as -0.1 ± 0.071. For P23I, the abundance fitness was -0.373 ± 0.066. With P23T the abundance fitness was 0.019 ± 0.08. With P23G the abundance fitness was 0.006 ± 0.055. P23C showed an abundance fitness of -0.2 ± 0.092. With P23H the abundance fitness was -0.113 ± 0.067. With P23D the abundance fitness was 0.037 ± 0.076.
